Reference: publication PMC3157015 (Biochemical and biophysical research communications, 2011)
No end group written: not given here.

What was measured:
[1] = target: T1, Glutaminase Interacting Protein (GIP), recombinant (UniProt O14907 1-124); assay: NMR titration
T1 sequence (looked up): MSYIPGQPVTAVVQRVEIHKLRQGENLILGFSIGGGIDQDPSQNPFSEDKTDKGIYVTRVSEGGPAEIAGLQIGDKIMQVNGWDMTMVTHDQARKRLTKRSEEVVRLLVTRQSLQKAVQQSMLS

[2] = target: T1, Glutaminase Interacting Protein (GIP), …; assay: NMR titration; remark: listed apart in the source

Kd [1]: 97.8 µM
KD from residue A66 of GIP [2]: 86.6 µM
KD from residue D38 of GIP [2]: 92.5 µM
KD from residue E17 of GIP [2]: 64.8 µM
KD from residue E62 of GIP [2]: 102 µM
KD from residue E102 of GIP [2]: 118 µM
KD from residue F46 of GIP [2]: 138 µM
KD from residue L71 of GIP [2]: 85.8 µM
KD from residue N81 of GIP [2]: 84.3 µM
KD from residue T86 of GIP [2]: 104 µM
B1: BAI2 C-terminal peptide (RDGDFQTEV-COOH) (peptide)
peptide: RDGDFQTEV-OH
